Test results published in PMC7367201, “G-quadruplexes offer a conserved structural motif for NONO recruitment to NEAT1 architectural lncRNA”.

T1: NONO(53-312) (UniProt Q15233 53-312)
T1 sequence: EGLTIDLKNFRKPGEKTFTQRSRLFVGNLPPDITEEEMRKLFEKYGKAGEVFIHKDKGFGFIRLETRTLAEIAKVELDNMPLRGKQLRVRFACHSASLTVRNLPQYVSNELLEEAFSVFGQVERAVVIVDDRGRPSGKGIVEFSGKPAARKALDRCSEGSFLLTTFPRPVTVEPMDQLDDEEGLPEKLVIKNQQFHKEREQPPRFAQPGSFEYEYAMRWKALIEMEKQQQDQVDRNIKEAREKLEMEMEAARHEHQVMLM

T2: NONO full-length (UniProt Q15233 1-471)
T2 sequence: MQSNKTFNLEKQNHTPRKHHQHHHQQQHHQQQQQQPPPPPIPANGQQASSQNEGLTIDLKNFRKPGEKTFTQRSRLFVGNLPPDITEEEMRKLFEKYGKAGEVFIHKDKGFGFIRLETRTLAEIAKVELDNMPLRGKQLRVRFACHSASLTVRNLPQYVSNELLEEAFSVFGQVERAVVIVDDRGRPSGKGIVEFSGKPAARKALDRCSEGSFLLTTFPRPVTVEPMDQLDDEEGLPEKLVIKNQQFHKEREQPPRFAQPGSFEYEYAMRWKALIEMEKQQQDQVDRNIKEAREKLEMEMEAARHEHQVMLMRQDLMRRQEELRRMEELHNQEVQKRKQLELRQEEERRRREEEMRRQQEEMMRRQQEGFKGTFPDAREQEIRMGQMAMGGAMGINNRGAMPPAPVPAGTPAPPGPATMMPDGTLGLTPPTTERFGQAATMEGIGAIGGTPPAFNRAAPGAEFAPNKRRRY


Experiments:
[1] = target: T1, NONO(53-312); test: competition; vs labelled NEAT1_22619 G4, 1-200x excess; NONO(53-312) EMSA: 20 mM HEPES pH 7.5, 5.7 mM Tris-HCl, 113 mM KCl, 10% glycerol, 62 mM L-proline, 1% EMPIGEN BB, 0.12 mM EDTA, 4 C 1 h, 10 nM RNA; full-length: 20 mM HEPES pH 7.4, 11 mM Tris, 105 mM KCl, 14% glycerol, 40 mM glycine, 0.2 mM EDTA, 0.5 mM DTT, 0.5% BSA, 25 C; pulldown: 10 mM HEPES pH 7.0, 200 mM KCl, 1% Triton X-100, 1 mM MgCl2, 1 mM DTT, 4 C, …; conditions: protein: recombinant; tags: His tag removed by TEV; chain copies: 2; label: none; intramolecular G4
[2] = target: T1, NONO(53-312); test: competition; vs labelled NEAT1_22619 G4, 1-200x excess; no significant competition; NONO(53-312) EMSA: 20 mM HEPES pH 7.5, 5.7 mM Tris-HCl, 113 mM KCl, 10% glycerol, 62 mM L-proline, 1% EMPIGEN BB, 0.12 mM EDTA, 4 C 1 h, 10 nM RNA; full-length: 20 mM HEPES pH 7.4, 11 mM Tris, 105 mM KCl, 14% glycerol, 40 mM glycine, 0.2 mM EDTA, 0.5 mM DTT, 0.5% BSA, 25 C; pulldown: 10 mM HEPES pH 7.0, 200 mM KCl, 1% Triton X-100, 1 …; conditions: protein: recombinant; tags: His tag removed by TEV; chain copies: 2; label: none; annealed with 100 mM KCl
[3] = target: T1, NONO(53-312); test: EMSA; annealed with 100 mM KCl; NONO(53-312) EMSA: 20 mM HEPES pH 7.5, 5.7 mM Tris-HCl, 113 mM KCl, 10% glycerol, 62 mM L-proline, 1% EMPIGEN BB, 0.12 mM EDTA, 4 C 1 h, 10 nM RNA; full-length: 20 mM HEPES pH 7.4, 11 mM Tris, 105 mM KCl, 14% glycerol, 40 mM glycine, 0.2 mM EDTA, 0.5 mM DTT, 0.5% BSA, 25 C; pulldown: 10 mM HEPES pH 7.0, 200 mM KCl, 1% Triton X-100, 1 mM MgCl2, 1 mM DTT, 4 C, washes to 1.6 M KCl; conditions: protein: recombinant; tags: His tag removed by TEV; chain copies: 2; label: 3' Cy5; intramolecular G4, annealed with 100 mM KCl
[4] = target: T2, NONO full-length; test: EMSA; annealed with 100 mM KCl; complex retained in wells; NONO(53-312) EMSA: 20 mM HEPES pH 7.5, 5.7 mM Tris-HCl, 113 mM KCl, 10% glycerol, 62 mM L-proline, 1% EMPIGEN BB, 0.12 mM EDTA, 4 C 1 h, 10 nM RNA; full-length: 20 mM HEPES pH 7.4, 11 mM Tris, 105 mM KCl, 14% glycerol, 40 mM glycine, 0.2 mM EDTA, 0.5 mM DTT, 0.5% BSA, 25 C; pulldown: 10 mM HEPES pH 7.0, 200 mM KCl, 1% Triton X-100, 1 mM MgCl2, 1 mM DTT, 4 C, …; conditions: protein: commercial; tags: MYC/DDK; chain copies: 2; label: 3' Cy5; intramolecular G4, annealed with 100 mM KCl

Binder | binding result [1] | binding result [3] | other results
GGGAGGGAGGGAGGG (structured_RNA) [NEAT1_22619 G-quadruplex competitor] | binds | – | –
AAAAAGGUAAG (ssRNA) [5'-Splice Site RNA] | – | – | binding result [2]: no binding
GGGGCCGGGGCCGGGGCCGGGGCC (structured_RNA) [(GGGGCC)4 G-quadruplex competitor] | binds | – | –
GGGGCCGGGGCCGGGGCCGGGGCC (structured_RNA) [(GGGGCC)4 G-quadruplex] | – | binds | –
GGGAGGGAGGGAGGG (structured_RNA) [NEAT1_22619 G-quadruplex] | – | binds | binding result [4]: binds
